This note sets out measurements from publication PMC10691244, “The mechanism of Gαq regulation of PLCβ3-catalyzed PIP2 hydrolysis” (Proceedings of the National Academy of Sciences of the …, 2023).

Broadly, the stoichiometry N is a count of units in the complex or per binding partner.

The assay deals with T1, Phospholipase Cβ3 (PLCβ3), wild type (UniProt Q01970 10-1234).
T1 construct: Phospholipase Cβ3; The CTD linker and distal CTD are disordered in the structures; also called wild-type PLCβ3
T1 sequence: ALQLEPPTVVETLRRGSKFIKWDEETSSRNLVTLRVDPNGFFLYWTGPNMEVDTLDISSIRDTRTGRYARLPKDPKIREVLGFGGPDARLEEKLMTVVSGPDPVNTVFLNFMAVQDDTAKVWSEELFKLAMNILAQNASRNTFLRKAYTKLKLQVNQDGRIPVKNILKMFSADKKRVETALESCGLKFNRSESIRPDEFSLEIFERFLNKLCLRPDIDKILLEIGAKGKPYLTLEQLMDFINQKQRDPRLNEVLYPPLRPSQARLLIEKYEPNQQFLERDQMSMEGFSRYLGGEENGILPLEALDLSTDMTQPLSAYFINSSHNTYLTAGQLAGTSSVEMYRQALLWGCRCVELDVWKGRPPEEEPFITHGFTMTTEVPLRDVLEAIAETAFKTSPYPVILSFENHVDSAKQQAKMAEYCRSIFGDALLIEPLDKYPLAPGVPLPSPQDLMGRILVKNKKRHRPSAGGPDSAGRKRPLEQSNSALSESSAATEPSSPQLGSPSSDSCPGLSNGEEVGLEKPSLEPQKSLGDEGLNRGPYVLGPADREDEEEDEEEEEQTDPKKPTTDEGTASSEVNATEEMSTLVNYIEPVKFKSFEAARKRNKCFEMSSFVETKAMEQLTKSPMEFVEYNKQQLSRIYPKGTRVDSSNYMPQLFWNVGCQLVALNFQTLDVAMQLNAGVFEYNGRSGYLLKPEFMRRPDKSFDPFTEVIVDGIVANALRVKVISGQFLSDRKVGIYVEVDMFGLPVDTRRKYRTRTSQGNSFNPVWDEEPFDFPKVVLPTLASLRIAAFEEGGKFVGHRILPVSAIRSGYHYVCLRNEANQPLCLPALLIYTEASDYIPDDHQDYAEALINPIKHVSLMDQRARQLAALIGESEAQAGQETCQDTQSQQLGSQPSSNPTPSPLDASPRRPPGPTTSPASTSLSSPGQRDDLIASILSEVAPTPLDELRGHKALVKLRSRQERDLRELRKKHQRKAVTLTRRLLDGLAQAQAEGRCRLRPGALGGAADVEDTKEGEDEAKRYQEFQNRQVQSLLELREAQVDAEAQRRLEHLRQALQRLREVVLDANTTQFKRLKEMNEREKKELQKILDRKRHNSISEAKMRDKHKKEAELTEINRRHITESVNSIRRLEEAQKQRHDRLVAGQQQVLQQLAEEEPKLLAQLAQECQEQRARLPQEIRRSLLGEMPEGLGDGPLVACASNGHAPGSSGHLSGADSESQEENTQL
Briefly: cryo-EM structure; PLCβ3 mixed with wildtype Gαq bound to GDP-AlF4, then added to 2DOPE:1POPC:1POPS (wt:wt:wt) vesicles with reconstituted lipidated Gβγ; 3.4 Å. The note with it: both partners purified.

B1: Gαq, wild type, nonlipidated, bound to GDP-AlF4 (natural protein)
chain: MACCLSEEAKEARRINDEIERQLRRDKRDARRELKLLLLGTGESGKSTFIKQMRIIHGSGYSDEDKRGFTKLVYQNIFTAMQAMIRAMDTLKIPYKYEHNKAHAQLVREVDVEKVSAFENPYVDAIKSLWNDPGIQECYDRRREYQLSDSTKYYLNDLDRVADPAYLPTQQDVLRVRVPTTGIIEYPFDLQSVIFRMVDVGGQRSERRKWIHCFENVTSIMFLVALSEYDQVLVESDNENRMEESKALFRTIITYPWFQNSSVILFLNKKDLLEEKIMYSHLVDYFPEYDGPQRDAQAAREFILKMFVDLNPDSDKIIYSHFTCATDTENIRFVFAAVKDTILQLNLKEYNLV
notes: In the structures the N terminus is disordered until position 38; Construct limits, any chimeric N terminus, host and tags are described only in SI Appendix, Materials and Methods; also called wildtype Gαq; wild-type Gαq
B1: the “stoichiometry N” value was determined as 1.
